Test [1] concerns the target T1, recombinant human CD16A (48R/158F) expressed on the surface of CHO cells (human, UniProt P08637 17-254).
T1 construct: also called huCD16A; CD16A (158F)
The experiment in a line: flow cytometry, CHO-huCD16A cells, apparent KD; SD n.a. A general note: A flow cytometer gives signals particle by particle.

The target in test [2] is T2, recombinant human CD64 expressed on the surface of CHO cells (human, UniProt P12314 16-374).
T2 construct: whole, on cells; also called huCD64
T2 sequence (P12314 16-374): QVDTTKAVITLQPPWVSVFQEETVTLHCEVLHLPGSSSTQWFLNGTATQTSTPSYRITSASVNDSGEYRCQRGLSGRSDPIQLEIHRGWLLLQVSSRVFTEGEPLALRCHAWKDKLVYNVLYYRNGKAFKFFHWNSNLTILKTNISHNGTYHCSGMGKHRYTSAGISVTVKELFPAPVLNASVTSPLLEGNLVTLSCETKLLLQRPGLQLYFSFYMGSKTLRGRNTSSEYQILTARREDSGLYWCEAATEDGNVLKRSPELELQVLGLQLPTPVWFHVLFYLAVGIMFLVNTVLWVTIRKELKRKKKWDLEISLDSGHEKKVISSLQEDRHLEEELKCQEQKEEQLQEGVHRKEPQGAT
The experiment in a line: flow cytometry, CHO-huCD64 cells, apparent KD; SD 6.6.

The target in test [3] is T3, recombinant human CD32A expressed on the surface of CHO cells (human, UniProt P12318 34-317).
T3 construct: whole, on cells; also called huCD32A
T3 sequence (looked up): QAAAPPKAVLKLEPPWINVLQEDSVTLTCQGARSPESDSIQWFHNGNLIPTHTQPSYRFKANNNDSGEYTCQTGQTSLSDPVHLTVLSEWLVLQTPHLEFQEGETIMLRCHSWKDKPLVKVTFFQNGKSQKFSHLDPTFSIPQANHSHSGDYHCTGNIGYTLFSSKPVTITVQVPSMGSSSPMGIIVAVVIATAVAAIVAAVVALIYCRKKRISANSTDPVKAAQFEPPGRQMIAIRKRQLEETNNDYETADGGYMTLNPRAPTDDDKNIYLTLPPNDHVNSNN
The test can be described thus: flow cytometry, CHO-huCD32A cells, apparent KD; SD 64.3.

The target of test [4] is T4, recombinant human NKp46 expressed on the surface of CHO cells (human, UniProt O76036 22-304).
T4 construct: whole, on cells; also called huNKp46; CD355
T4 sequence (O76036 22-304): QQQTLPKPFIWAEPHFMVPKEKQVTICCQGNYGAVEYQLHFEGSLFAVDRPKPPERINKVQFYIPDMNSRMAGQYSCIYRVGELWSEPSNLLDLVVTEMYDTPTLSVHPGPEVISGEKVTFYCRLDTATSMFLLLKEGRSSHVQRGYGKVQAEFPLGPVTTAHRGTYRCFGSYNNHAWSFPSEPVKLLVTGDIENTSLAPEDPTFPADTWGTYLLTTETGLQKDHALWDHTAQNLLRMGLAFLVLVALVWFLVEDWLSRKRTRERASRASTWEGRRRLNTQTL
The test can be described thus: flow cytometry, CHO-huNKp46 cells, apparent KD; SD 3.7.

Test [5] deals with T3, recombinant human CD32A expressed on …. The test can be described thus: flow cytometry, CHO-huCD32A cells, apparent KD; SD 2169.4.
In test [6] the target is T2, recombinant human CD64 expressed on the …. The test can be described thus: flow cytometry, CHO-huCD64 cells, apparent KD; SD 5.8.
Test [7] concerns the target T4, recombinant human NKp46 expressed on …. The test can be described thus: flow cytometry, CHO-huNKp46 cells, apparent KD; SD 1.9.
Test [8] addresses T5, recombinant human NKG2D expressed on the surface of CHO cells (human, UniProt P26718 1-216).
T5 construct: whole, on cells; also called huNKG2D; CD314
T5 sequence (looked up): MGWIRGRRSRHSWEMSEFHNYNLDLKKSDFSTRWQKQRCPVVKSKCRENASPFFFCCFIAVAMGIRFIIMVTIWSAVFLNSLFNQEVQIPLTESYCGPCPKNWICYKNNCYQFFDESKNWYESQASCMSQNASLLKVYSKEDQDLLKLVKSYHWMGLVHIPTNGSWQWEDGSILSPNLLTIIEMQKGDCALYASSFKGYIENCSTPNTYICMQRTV
The test can be described thus: flow cytometry, CHO-huNKG2D cells, apparent KD; SD 6.8. The procedure: (§1) The CHO cells were incubated with serial dilutions of the indicated trispecific constructs and control constructs at 37° C., and cell surface bound antibodies were detected by FITC-conjugated goat anti-human IgG Fc and flow cytometric analysis. Measured median fluorescence intensity values were used to calculate apparent affinities (KD) by non-linear regression.

For test [9], the target named is T3, recombinant human CD32A expressed on …. The test can be described thus: flow cytometry, CHO-huCD32A cells, apparent KD; SD n.a. The procedure: as §1
For test [10], the target named is T2, recombinant human CD64 expressed on the …. The experiment in a line: flow cytometry, CHO-huCD64 cells, apparent KD; SD 7.7. The procedure: as §1
Test [11] has the same target. The experiment in a line: flow cytometry, CHO-huCD64 cells, apparent KD; SD 7.6. The method, then: as §1
The target of test [12] is T5, recombinant human NKG2D expressed on …. The test can be described thus: flow cytometry, CHO-huNKG2D cells, apparent KD; SD 16.2. The procedure:
as §1

The target in test [13] is T3, recombinant human CD32A expressed on …. The experiment in a line: flow cytometry, CHO-huCD32A cells, apparent KD; SD 405.5. The procedure:
as §1

Test [14] has as its target T4, recombinant human NKp46 expressed on …. The test can be described thus: flow cytometry, CHO-huNKp46 cells, apparent KD; SD 2.8. The procedure:
as §1

Test [15] addresses T2, recombinant human CD64 expressed on the …. The test can be described thus: flow cytometry, CHO-huCD64 cells, apparent KD; SD 2.7. The procedure:
as §1

B1: scFv-IgAb-396 (bispecific antibody)
chain 1: not shown
chain 2: DIVMTQSPATLSLSPGERATLSCRSSKSLQNVNGNTYLYWFQQKPGQSPQLLIYRMSNLNSGVPDRFSGSGSGTEFTLTISSLEPEDFAVYYCMQHLEYPITFGAGTKLEIKRTVAAPSVFIFPPSDEQLKSGTASVVCLLNNFYPREAKVQWKVDNALQSGNSQESVTEQDSKDSTYSLSSTLTLSKADYEKHKVYACEVTHQGLSSPVTKSFNRGEC
Consider B1, for which the Kd is 5.19 µM in test [1], 0.0341 µM in [2], 0.374 µM in test [3] and 0.0098 µM in test [4].

B2: scFv-IgAb-395 (bispecific antibody)
chain 1: not shown
chain 2: B1 chain 2
As to B2, the Kd in test [5] is 5.63 µM; in test [6], 0.0423 µM; in test [7], 0.0057 µM.

B3: AIG-1scFv-6 (ComparatorB_2) (bispecific antibody, human IgG1, kappa)
heavy 1: not shown
light: B1 chain 2
heavy 2: not shown
notes: CD19, wt Fc, NKG2D(ADI-27743)
B3: the Kd turned out to be 0.0223 µM in test [8], 2.53 µM in test [9] and 0.0228 µM in [10].

B4: AIG-1scFv-5 (ComparatorB_1) (bispecific antibody, human IgG1, kappa)
heavy 1: not shown
light: B1 chain 2
heavy 2: not shown
notes: CD19, wt Fc, NKG2D(KYK-2.0)
As to B4, the Kd in [11] was 0.0274 µM; in test [9] it was 2.47 µM; in test [12], 0.0285 µM.

B5: 1Fab-AFc-1Fab-6 (bispecific antibody, human IgG1, kappa)
chain 1: DIVMTQSPATLSLSPGERATLSCRSSKSLQNVNGNTYLYWFQQKPGQSPQLLIYRMSNLNSGVPDRFSGSGSGTEFTLTISSLEPEDFAVYYCMQHLEYPITFGAGTKLEIKRTVAAPSVFIFPPSDEQLKSGTASVVCLLNNFYPREAKVQWKVDNALQSGNSQESVTEQDSKDSTYSLSSTLTLSKADYEKHKVYACEVTHQGLSSPVTKSFNRGECDKTHTCPPCPAPELLGGPDVFLFPPKPKDTLMISRTPEVTCVVVDVSHEDPEVKFNWYVDGVEVHNAKTKPREEQYNSTYRVVSVLTVLHQDWLNGKEYKCKVSNKALPAPEEKTISKAKGQPREPQVYTLPPSREEMTKNQVSLWCLVKGFYPSDIAVEWESNGQPENNYKTTPPVLDSDGSFFLYSKLTVDKSRWQQGNVFSCSVMHEALHNHYTQKSLSLSPGK
chain 2: EVQLVESGGGLVKPGGSLKLSCAASGYTFTSYVMHWVRQAPGKGLEWIGYINPYNDGTKYNEKFQGRVTISSDKSISTAYMELSSLRSEDTAMYYCARGTYYYGTRVFDYWGQGTLVTVSSASTKGPSVFPLAPSSKSTSGGTAALGCLVKDYFPEPVTVSWNSGALTSGVHTFPAVLQSSGLYSLSSVVTVPSSSLGTQTYICNVNHKPSNTKVDKKVEPKSCDKTHTCPPCPAPELLGGPDVFLFPPKPKDTLMISRTPEVTCVVVDVSHEDPEVKFNWYVDGVEVHNAKTKPREEQYNSTYRVVSVLTVLHQDWLNGKEYKCKVSNKALPAPEEKTISKAKGQPREPQVYTLPPSREEMTKNQVSLSCAVKGFYPSDIAVEWESNGQPENNYKTTPPVLDSDGSFFLVSKLTVDKSRWQQGNVFSCSVMHEALHNHYTQKSLSLSPGSTGSEVQLQQSGPELVKPGASVKISCKTSGYTFTEYTMHWVKQSHGKSLEWIGGISPNIGGTSYNQKFKGKATLTVDKSSSTAYMELRSLTSEDSAVYYCARRGGSFDYWGQGTTLTVSSRTVAAPSVFIFPPSDEQLKSGTASVVCLLNNFYPREAKVQWKVDNALQSGNSQESVTEQDSKDSTYSLSSTLTLSKADYEKHKVYACEVTHQGLSSPVTKSFNRGEC
chain 3: DIVMTQSPATLSVTPGDRVSLSCRASQSISDYLHWYQQKSHESPRLLIKYASQSISGIPSRFSGSGSGSDFTLSINSVEPEDVGVYYCQNGHSFPLTFGAGTKLELKASTKGPSVFPLAPSSKSTSGGTAALGCLVKDYFPEPVTVSWNSGALTSGVHTFPAVLQSSGLYSLSSVVTVPSSSLGTQTYICNVNHKPSNTKVDKKVEPKSCDKTH
notes: CD19, Fc-enhanced Fc, NKp46(NKp46-3); also called ComparatorA_6
With B5, the Kd in test [13] was 1.01 µM; in test [14], 0.0458 µM; in [15], 0.0126 µM.

The record behind these values is patent publication US20230365709A1 (published 2023).
